2 molecules from PMC4022583, “The C-Terminal Random Coil Region Tunes the Ca^2+-Binding Affinity of S100A4 through Conformational Activation” (PLoS ONE, 2014) can be followed below.

Data set [1] deals with the molecule itself. As to the kind of experiment: pulsed field gradient NMR diffusion; Ca2+-bound: same sample after addition of Ca2+ to 9 mM, 287 K; one and two components fitted for WT.
For data set [2], the target named is T1, S100A4Δ13 (C-terminal deletion mutant, residues 1-88) (human, UniProt P26447 1-88).
T1 construct: human S100A4, residues 1-88 (F89-K101 deleted); also called Δ13 mutant; Δ13 S100A4
T1 sequence (P26447 1-88, stated change not applied): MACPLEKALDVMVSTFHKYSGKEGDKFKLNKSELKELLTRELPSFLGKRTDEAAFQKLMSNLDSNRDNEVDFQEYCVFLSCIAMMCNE
The data set is described as follows: ITC; 75 µM S100A4Δ13 in the cell titrated with MPT at 25°C (298 K) in the presence of 1 mM CaCl2. To be noted: both partners purified.

B1: S100A4 C-terminal deletion mutant (residues 1-88, Δ13) (domain or fragment)
chain: not shown
notes: also called Δ13 mutant; S100A4Δ13
In the case of B1, the “stoichiometry N” value in data set [1] came out at 2.

B2: NMIIA fragment MPT (Tyr-Arg1894-Lys1937) (peptide)
peptide: YRKLQRELEDATETADAMNREVSSLKNKLRRGDLPFVVPRRMARK
notes: extra N-terminal tyrosine, printed as 'Tyr-Arg1894-Lys1937'; non-muscle myosin IIA (NMIIA) heavy chain, residues Arg1894-Lys1937; also called MPT peptide; myosin IIA fragment; not shown: His10, N-terminal, cleaved; ubiquitin, N-terminal, cleaved
B2: the Kd in data set [2] is 14.7 nM.
